Values belong to the binder of their own block, whether it stands above or below them.
How the values were obtained:
Assay in all cases: crystal structure
Fab^S1CE1-EPR-1 = target: Fab^S1CE1-EPR-1
Fab^S1CE3-EPR-1 = target: Fab^S1CE3-EPR-1
[1] = target: extracellular domain (ECD) of the human erythropoietin receptor (EPOR) with a C-terminal hexahistidine tag (human, UniProt P19235)
Fab^S1CE4-EPR-1 = target: Fab^S1CE4-EPR-1

extracellular domain (ECD) of the human erythropoietin receptor (EPOR) with a C-terminal hexahistidine tag, sequence (P19235 25-250): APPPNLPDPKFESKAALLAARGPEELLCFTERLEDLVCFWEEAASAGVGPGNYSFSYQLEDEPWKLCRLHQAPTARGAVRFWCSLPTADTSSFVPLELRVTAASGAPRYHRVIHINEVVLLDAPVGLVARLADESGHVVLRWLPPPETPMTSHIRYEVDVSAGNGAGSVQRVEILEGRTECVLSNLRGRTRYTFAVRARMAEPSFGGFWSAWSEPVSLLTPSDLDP

B1: Fab^S1CE1-EPR-1 (Fab, V domains shown)
VH: EVQLVESGGGLVQPGGSLRLSCAASGFNLRSYYMHWVRQAPGKGLEWVASISPYYSYTYYADSVKGRFTISADTSKNTAYLQMNSLRAEDTAVYYCARHGYGAMDYWGQGTLVTVFN
VL: DIQMTQSPSSLSASVGDRVTITCRASQSVSSAVAWYQQKPGKAPKLLIYSASSLYSGVPSRFSGSRSGTDFTLTISSLQPEDFATYYCQQSSYSLITFGQGTKVEIK
stoichiometry N (Fab^S1CE1-EPR-1): 2

B3: Fab^S1CE-EPR-1 (Fab, V domains shown)
VH: EVQLVESGGGLVQPGGSLRLSCAASGFNLRSYYMHWVRQAPGKGLEWVASISPYYSYTYYADSVKGRFTISADTSKNTAYLQMNSLRAEDTAVYYCARHGYGAMDYWGQGTLVTVFN
VL: DIQMTQSPSSLSASVGDRVTITCRASQSVSSAVAWYQQKPGKAPKLLIYSASSLYSGVPSRFSGSRSGTDFTLTISSLQPEDFATYYCQQSSYSLITFGQGTKVEIK
binding result [1]: binds

Other lines, results leading:

stoichiometry N (Fab^S1CE3-EPR-1): 2
B2: Fab^S1CE3-EPR-1 (Fab, V domains shown)
VH: EVQLVESGGGLVQPGGSLRLSCAASGFNLRSYYMHWVRQAPGKGLEWVASISPYYSYTYYADSVKGRFTISADTSKNTAYLQMNSLRAEDTAVYYCARHGYGAMDYWGQGTLVTVFN
VL: DIQMTQSPSSLSASVGDRVTITCRASQSVSSAVAWYQQKPGKAPKLLIYSASSLYSGVPSRFSGSRSGTDFTLTISSLQPEDFATYYCQQSSYSLITFGQGTKVEIK

stoichiometry N (Fab^S1CE4-EPR-1): 2
B4: Fab^S1CE4-EPR-1 (Fab, V domains shown)
VH: EVQLVESGGGLVQPGGSLRLSCAASGFNLRSYYMHWVRQAPGKGLEWVASISPYYSYTYYADSVKGRFTISADTSKNTAYLQMNSLRAEDTAVYYCARHGYGAMDYWGQGTLVTVFN
VL: DIQMTQSPSSLSASVGDRVTITCRASQSVSSAVAWYQQKPGKAPKLLIYSASSLYSGVPSRFSGSRSGTDFTLTISSLQPEDFATYYCQQSSYSLITFGQGTKVEIK

— article PMC11201802 (Protein Science : A Publication of the Protein Society, 2024)
